Where no end group is shown, it is not given here. Side-chain parts run from the residue outwards. The star is where a group is joined. PEG4 (disulfide) = PEG4 chain joined to the cysteine by a disulfide bond, carrying benzylguanine; benzylguanine = O6-benzylguanine; Octanoyl = CCCCCCCC(=O)*
Experiments:
MIN6 cells [1] = assay: Necrosis assay (propidium iodide/calcein); format: cell-based; details: 10 mM BME, 60 min incubation
Description: For quantification of necrosis, MIN6 cells were labeled with 5 μM calcein-AM and 5 μM propidium iodide for 30 min. Cells were imaged in HEPES-bicarbonate buffer using the Crest X-Light spinning disk system, and excitation was performed at λ = 458–482 nm and λ = 543–558 nm for calcein and propidium iodide, respectively. Emitted signals were detected at λ = 500–550 nm and λ = 602–662 nm for calcein and propidium iodide, respectively. Total area was quantified using the threshold plugin for Fiji and expressed as the ratio propidium iodide/calcein, as described.[70]

MIN6 cells [2] = assay: Apoptosis assay (cleaved caspase 3 immunostaining); format: cell-based; details: 10 mM BME, 60 min incubation, n = 3 experiments
Description: For quantification of apoptosis, MIN6 cells were incubated with 10 mM BME for the indicated times and fixed in 4% paraformaldehyde. Immunostaining was performed using an antibody against Cleaved Caspase 3 (CC3; 1:400; #9661, Cell Signaling Technology), before secondary goat antirabbit Alexa Fluor 633 (1:1000) and Hoechst 33342 staining. Cells were imaged using a Zeiss LSM 880 confocal microscope, with excitation delivered at λ = 405 nm and λ = 633 nm. Emitted signals were collected at λ = 410–550 nm and λ = 641–695 nm for Hoechst 33342 and Alexa Fluor 633, respectively. Total area was quantified using the threshold plugin for Fiji, and results were expressed as the ratio CC3/Hoechst, as described.[69]

human GHS-R1a [3] = molecular target: T1, human GHS-R1a (Homo sapiens, UniProt Q92847); assay: Inositol phosphate (IP-1) accumulation assay, IP-One HTRF; format: cell-based; details: HEK293T-GHS-R1a cells; mean ± SEM, n = 2 assays in triplicate
T1 construct: expressed in transfected cells; host or cells: HEK293T cells

SNAP_GLP-1R = SNAP_GLP-1R (UniProt P43220)
human GHS-R1a [4] = molecular target: T2, human GHS-R1a (human, UniProt Q92847 1-366); assay: AlphaScreen or HTRF; Tag-lite HTRF competition (Cisbio) on HEK293T-GHS-R1a cells; Ki calculated from binding curves; the labelled tracer is not named; as in ref. 72; n = 2 assays in triplicate; details: one partner purified
human GHS-R1a [5] = molecular target: T2, human GHS-R1a; assay: cell-based or functional assay

T2 sequence (Q92847 whole entry): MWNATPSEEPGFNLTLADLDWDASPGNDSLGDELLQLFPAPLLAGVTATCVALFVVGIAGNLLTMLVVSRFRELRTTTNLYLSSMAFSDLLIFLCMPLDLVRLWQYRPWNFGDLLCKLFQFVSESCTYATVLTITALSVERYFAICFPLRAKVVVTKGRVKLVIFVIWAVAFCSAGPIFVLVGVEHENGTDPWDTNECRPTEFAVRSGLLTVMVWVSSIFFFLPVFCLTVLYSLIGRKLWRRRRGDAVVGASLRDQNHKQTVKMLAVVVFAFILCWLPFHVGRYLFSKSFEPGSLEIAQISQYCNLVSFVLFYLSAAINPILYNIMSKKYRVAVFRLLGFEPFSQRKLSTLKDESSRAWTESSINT
SNAP_GLP-1R, sequence (P43220 whole entry): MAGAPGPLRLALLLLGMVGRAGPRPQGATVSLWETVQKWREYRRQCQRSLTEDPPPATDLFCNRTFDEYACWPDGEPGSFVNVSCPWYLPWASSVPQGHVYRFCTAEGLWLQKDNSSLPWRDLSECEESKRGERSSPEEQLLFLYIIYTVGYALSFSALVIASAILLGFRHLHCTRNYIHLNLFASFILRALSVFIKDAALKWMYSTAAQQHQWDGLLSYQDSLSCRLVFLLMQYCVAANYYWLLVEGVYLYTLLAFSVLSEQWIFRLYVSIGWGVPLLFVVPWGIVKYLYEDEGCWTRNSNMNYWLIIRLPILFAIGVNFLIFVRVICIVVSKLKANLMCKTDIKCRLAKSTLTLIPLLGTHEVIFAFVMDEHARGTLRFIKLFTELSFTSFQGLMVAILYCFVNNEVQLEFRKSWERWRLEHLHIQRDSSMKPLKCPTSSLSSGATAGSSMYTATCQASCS
T1 sequence (Q92847 whole entry): as the sequence (Q92847 whole entry) above

Molecule: OCCS [BME, beta-mercaptoethanol]
- necrosis (MIN6 cells [1]): did not display significant signs of necrosis
- apoptosis (cleaved caspase 3) (MIN6 cells [2]): did not display significant signs of necrosis (Figure S4a) or apoptosis

Molecule: CCCCCCCC(=O)OC[C@H](NC(=O)[C@H](CO)NC(=O)CN)C(=O)N[C@@H](Cc1ccccc1)C(=O)N[C@@H](CC(C)C)C(=O)N[C@@H](CO)C(=O)N1CCC[C@H]1C(=O)N[C@@H](CCC(=O)O)C(=O)N[C@@H](Cc1c[nH]cn1)C(=O)N[C@@H](CCC(N)=O)C(=O)N[C@@H](CCCNC(=N)N)C(=O)N[C@H](C(=O)N[C@@H](CCC(N)=O)C(=O)N[C@@H](CCC(N)=O)C(=O)N[C@@H](CCCNC(=N)N)C(=O)N[C@@H](CCCCN)C(=O)N[C@@H](CCC(=O)O)C(=O)N[C@@H](CO)C(=O)N[C@@H](CCCCN)C(=O)N[C@@H](CCCCN)C(=O)N1CCC[C@H]1C(=O)N1CCC[C@H]1C(=O)N[C@@H](C)C(=O)N[C@@H](CCCCN)C(=O)N[C@@H](CC(C)C)C(=O)N[C@@H](CCC(N)=O)C(=O)N1CCC[C@H]1C(=O)N[C@@H](CCCNC(=N)N)C(=O)NCC(=O)NCC(=O)N[C@@H](CS)C(=O)NCC(=O)O)C(C)C [ghrelinGGCG]
- EC50 (human GHS-R1a [3]): 11.1 ± 0.4 nM

Molecule: S39C-Ex4 (peptide)
- EC50 of cAMP accumulation (LANCE TR-FRET, 30 min) in YFP-AD293-SNAP GLP-1R cells (SNAP_GLP-1R): 0.0988 nM

Molecule: GSS(Octanoyl)FLSPEHQRVQQRKESKKPPAKLQPRGGC([PEG4 (disulfide)-benzylguanine])G [GhrelON]
- Ki (human GHS-R1a [4]): 6.1 nM
- EC50 of IP-1 accumulation (IP-One HTRF kit) in HEK293T-GHS-R1a cells (human GHS-R1a [5]): 5.5 nM

Molecule: GSS(Octanoyl)FLSPEHQRVQQRKESKKPPAKLQPRGGCG [ghrelinGGCG]
- Ki (human GHS-R1a [4]): 19.6 nM
- EC50 of IP-1 accumulation (IP-One HTRF kit) in HEK293T-GHS-R1a cells (human GHS-R1a [5]): 11.2 nM
